We go through 23 molecules from patent publication US20190119407A1 (Amgen, published 2019).

Residue numbers refer to the chain shown, from its start.

The chains are these.
T1: human TL1A (human, UniProt O95150 72-251, limits assumed)
T1 sequence (looked up): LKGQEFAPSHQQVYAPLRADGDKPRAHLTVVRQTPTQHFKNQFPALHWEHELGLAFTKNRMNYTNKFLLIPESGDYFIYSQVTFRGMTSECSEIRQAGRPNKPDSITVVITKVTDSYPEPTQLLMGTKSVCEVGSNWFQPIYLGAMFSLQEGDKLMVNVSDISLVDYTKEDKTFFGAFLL

T2: cynomolgus TL1A (cynomolgus monkey, UniProt G7PRK8 72-251)
T2 sequence: T1 sequence (looked up) with F39L, I78V

T3: human TL1A (human, UniProt O95150 72-251, limits assumed)
T3 construct: also called huTL1A; TNFSF15
T3 sequence (looked up): T1 sequence (looked up)

B1: anti-TL1A mAb 3C6 (antibody, human IgG1, kappa, N297G, V domains shown)
VH: QVQLVESGGGVVQPGRSLRLSCAASGFTFSSYGMHWVRQAPGKGLEWVAVISYDGNNKLYTDSVKGRFTISRDDSKSTLYLQMNSLRAEDTAVYYCARDPTVTLYYYYGMDVWGQGTTVTVSS
VL: DIQMTQSPSSLSASVGDRVTITCRTSQDIRDDLGWYQQKPGKAPKRLIYDASSLQSGVPSRFSGSGSGTEFTLTISSLQPEDFATYYCLQHNSYPPTFGQGTKVEIKR
notes: also called PL-39112; iPS 284112
B2: anti-TL1A mAb 9C8 (antibody, human IgG1, kappa, N297G, V domains shown)
VH: QVQLQESGPGLVKPSETLSLTCTVSGGSISSYFWSWIRQPPGKGLEWIGYIYYSGNTKYNPSLKSRVTISIDTSKNQFSLKLSSVTAADTAVYYCARETGSYYGFDYWGQGTLVTVSS
VL: DIQMTQSPSSLSASVGDRVTITCRASQSINNYLNWYQQRPGKAPKLLIYAASSLQSGVPSRFSGSGSGTDFTLTISSLQPGDFATYYCQQSYSTPRTFGQGTKLEIKR
notes: also called PL-39116; iPS 285412
B3: anti-TL1A Fab 9C8 (Fab, V domains shown)
VH: B2 VH
VL: DIQMTQSPSSLSASVGDRVTITCRASQSINNYLNWYQQRPGKAPKLLIYAASSLQSGVPSRFSGSGSGTDFTLTISSLQPGDFATYYCQQSYSTPRTFGQGTKLEIK
notes: Fab fragment; the Fab's constant parts are not; also called 9C8 Fab; PL-39197
B4: anti-TL1A mAb 2G11 (antibody, human IgG1, kappa, N297G, V domains shown)
VH: B2 VH with N56S, K58N, I69M, T99I, T112A
VL: B2 VL with R39K, K42I, A51T, T72S, G81E, Y87F, L104V
notes: also called iPS 285396
B5: anti-TL1A Fab 2G11 (Fab, V domains shown)
VH: B2 VH with N56S, K58N, I69M, T99I, T112A
VL: B3 VL with R39K, K42I, A51T, T72S, G81E, Y87F, L104V
notes: Fab fragment; the Fab's constant parts are not; also called 2G11 Fab; PL-38025
B6: 92D3 (antibody, human IgG2, kappa, V domains shown)
VH: QVQLVQSGAEVKKPGASVQVSCKASGYTFTGYYMHWIRQAPGQGLEWLGWIIPNSGGTNYAQKFQGRVTMTRDTSISTAYMELSRLRSDDTAVYYCATGSSWEGFDYWGQGTLVTVSS
VL: DIQMTQSPSSLSASVGDRVTITCRASQSISSYLNWYQQKPGTAPKFLIYGASRLQSGVPSRFSGSGSGTDFTLTISSLQPEDFATYYCQQSDTTPITFGQGTRLEIKR
notes: also called iPS 427564
B7: 91F10_LC2 (antibody, human IgG2, kappa, V domains shown)
VH: B6 VH with V2G, Q19K, K23Q, G31A, I37V, L48M, I52N, Q65R, S100G
VL: B6 VL with T42K, G50A, T93S
notes: also called iPS 427572
B8: 54E5 (antibody, human IgG2, kappa, V domains shown)
VH: QVQLVESGGGVVQPGRSLRLSCAASGFTFSTYGMHWVRQAPGKGLEWVAVIWYDGSNKDYADSVKGRFTVSRDNSRDTLYLQMNSLRAEDTAVYYCAREERDSYYHYGMDVWGQGTTVTVSS
VL: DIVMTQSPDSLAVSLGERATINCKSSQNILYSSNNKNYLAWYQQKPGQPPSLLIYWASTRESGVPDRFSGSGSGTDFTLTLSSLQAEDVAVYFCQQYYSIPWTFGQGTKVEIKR
notes: also called iPS 427576
B9: 56E1 (antibody, human IgG2, kappa, V domains shown)
VH: B8 VH with T28I, T31S
VL: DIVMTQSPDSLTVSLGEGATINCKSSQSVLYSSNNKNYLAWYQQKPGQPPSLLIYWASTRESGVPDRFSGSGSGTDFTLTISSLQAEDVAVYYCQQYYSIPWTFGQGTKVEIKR
notes: also called iPS 427554
B10: 77D12 (antibody, human IgG2, lambda, V domains shown)
VH: QVQLVQSGAEVKKPGASVRVSCKASGYTFTGFYMHWVRQAPGQGLEWMGWINPDSGGTNYAQKFQGRVTMTRDTSISTAYMELSRLRSDDTAVYYCAREGIAVALTYWGQGTLVTVSS
VL: QSVLTQPPSASGTPGQRVTISCSESNSDIGTNAVNWYQQFPGTAPKFLIYSNNKRPSGVPDRFSGSKSGTSASLAISGLQSEDEADYYCATWDDNLNGPLFGGGTKLTVLG
notes: also called iPS 427549
B11: 60G11 (antibody, human IgG2, lambda, V domains shown)
VL: QSVLTQPPSVSGAPGQRVTISCTGSGSNIGAGYDVHWYQQLPGTAPKLLIYGNSHRPSGIPDRFSGSKSGTSASLAITGLQAEDEADYYCQSYDSSLSGYVFGTGTKVTVLG
V domain: EVQLLESGGGLVQPGGSLRLSCAASGFTFSNYAMNWVRQAPGKGLEWVSVISGRGGSTYYADSVKGRFTISRDNSRNTLYLQMNSLRAEDTAIYYCAKDGYSSAWFFDYWGQGTLITVSS
notes: also called iPS 427493
B12: 58G5 (antibody, human IgG2, lambda, V domains shown)
VH: B11 V domain with N35S, E46Q, R76K, I93V, F106Y, I116V
VL: B11 VL with G26S, I60V
notes: also called iPS 427539
B13: 53D3 (antibody, human IgG2, kappa, V domains shown)
VH: EVQLVESGGGLVKPGGSLRLSCAASEFTFSTYYMSWVRQAPGKGLEWVSSISSSSSFIYYADSVKGRFTISRDNAKNSLYLQMNSLRAEDTAVYYCARDRIAAPGTYYYYGMDVWGQGTTVTVSS
VL: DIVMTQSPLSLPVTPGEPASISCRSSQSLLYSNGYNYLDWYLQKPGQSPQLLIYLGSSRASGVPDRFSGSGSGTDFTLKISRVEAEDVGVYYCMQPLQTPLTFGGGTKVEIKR
notes: also called iPS 427504
B14: 76A4 (antibody, human IgG2, kappa, V domains shown)
VH: QVQLQQSGPGLVKPSQTLSLTCAISGDSVSSNSATWNWIRQSPSRGLEWLGRTYYRSKLYNDYAVSVKSRITINPDTSKNQFSLQLNSVTPEDTAVYYCAREVVAGPRWFDPWGQGTLVTVSS
VL: B2 VL with I29V, N30T, N31S, R39K, A50T, V58I, G81E, Y87F, T97S
notes: also called iPS 427529
B15: 73C2 (antibody, human IgG2, kappa, V domains shown)
VH: B14 VH with N32S, Y55Q, L59W, Y60N, K79R
VL: B2 VL with I29F, N30S, N31S, R39K, K45E, G81E, T85S, Y87F, T97S
notes: also called iPS 427544
B16: 91D7 (antibody, human IgG2, kappa, V domains shown)
VH: QVQLQQWGAGLLKPSETLSLTCAVYGGSFSGYYWSWIRQPPGKGLEWIGEINPVGRTNYKPSLKSRVTISVDTSKNQFSLKLSSVTAADTALYYCARDNGWHYAFDIWGQGTMVTVSS
VL: DIQMTQSPSSLSASVGDRVTITCRASQNISSYLNWYQQRPGKAPNLLLFTASSLQSGVPSRFSGSGSGTDFTLTINSLQPEDFATYYCQQSYSNPPESSFGQGTKLEIKR
notes: also called iPS 427514
B17: 87H11 (antibody, human IgG2, kappa, V domains shown)
VH: B16 VH with V2E, P53H, V54S, K60N, L92V, N99S, Y103F, A104S, G109D
VL: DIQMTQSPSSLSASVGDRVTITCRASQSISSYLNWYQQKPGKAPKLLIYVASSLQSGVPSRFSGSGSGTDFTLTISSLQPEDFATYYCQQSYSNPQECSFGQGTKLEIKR
notes: also called iPS 427534
B18: 88H9 (antibody, human IgG2, kappa, V domains shown)
VH: QVQLVESGAGVVQPGRSLRLSCAASGFTFSSYGMHWVRQAPGMGLEWVAVIWFDGSNEYYADSVKGRFTISRDNSKNTLYLQMNSLRAEDTAVYYCARERWFGELLDYWGQGTLVTVSS
VL: DIQMTQSPSSLSASVGDRVTITCRASQGIRNDLGWYQEKPGKAPKRLIYAASGLQGGDPSRFSGSGSGTEFTLTISSLQPEDFATYYCLQHNSYPTWTFGQGTKVEIKR
notes: also called iPS 427485
B19: 23B3 VH3 (antibody, human IgG1, kappa, N297G, V domains shown)
VH: EVQLLESGGGLVQPGGSLRLSCAISGDSVSTNSVAWNWIRQAPGKGLEWVSRTYYRSKWYNDYAVSVKGRFTISPDTSKNTFYLQMNSLRAEDTAVYYCAREDGDSYYRYGMDVWGQGTTVTVSS
VL: DIQMTQSPSSLSASVGDRVTITCRSSQSVLYSSNNKNYLVWYQQKPGKVPKLLIYWASTRESGVPSRFSGSGSGTDFTLTISSLQPEDFATYYCQQYYKTPLTFGGGTKVEIKR
notes: also called 23B3 HC3; iPS 325336
B20: 92E5 (antibody, human IgG2, kappa, V domains shown)
VH: EVHLLESGGGLVQPGGSLRLSCAASGFTFSSYAMSWVRQVPGKGLEWVSGISGRGGSTYYADSVKGRFTISRDNSKNTLYLQMDSLRAEDTAVYNCAIEVAGAFDIWGQGTMVTVSS
VL: DIQMIQSPSSLSASVGDRVTITCRASQSISHYLNWYQQKPGKAPKFLIYAASSLQSGVPSRFSGSGSGTDFTLTISSLQPEDFATYYCQQSFSSITFGQGTRLEIKR
notes: also called iPS 427559
B21: 91G8 (antibody, human IgG2, kappa, V domains shown)
VH: B20 VH with H3Q, A23V, V40A, R54S, T58R, D84N, N95Y
VL: B20 VL with H31S, S94T
notes: also called iPS 427524
B22: 89H9 (antibody, human IgG2, kappa, V domains shown)
VH: B20 VH with V40A, R54G, D84N, D90N, N95Y, V100M
VL: B20 VL with R18S, H31Y, F92Y
notes: also called iPS 427509
B23: 57A8 (antibody, V domains shown)
VH: EIQLLESGGGLVQPGGSLRLSCVASGFTFSSYVMSWVRQAPGKGLEWVSVISGSGGSTYYADSVKGRFTISRDNSKTTLYLQMNSLRAEDTAVYYCAKGGTNYYYYYSGMDVWGQGTTVTVSS
VL: QSVLTQPPSVSGAPGQRVTISCTGSSSNIGAGYNVHWYQQLPGTAPKLLIYGNNNRPSGVPDRFSGSKSGTSASLAITGLQTEDEADYYCQSYDSSLSGWVFGGGTKLTVL
notes: also called iPS 427519

For the first assay, the target named is T1, human TL1A. Put plainly: cell-based or functional assay.
Turning to B1, the “NF-kB IC50 nM, huTL1A (0.2 nM)” value worked out at 0.153 nM.

In the case of B2, the “NF-kB IC50 nM, huTL1A (0.2 nM)” value amounted to 0.131 nM.

As to B3, the “NF-kB IC50 nM, huTL1A (0.2 nM)” value came to 2.43 nM.

In the case of B4, the “NF-kB IC50 nM, huTL1A (0.2 nM)” value amounted to 0.223 nM.

As to B5, the “NF-kB IC50 nM, huTL1A (0.2 nM)” value amounted to 0.551 nM.

The target of a further assay is T2, cynomolgus TL1A. In words: cell-based or functional assay.
B1: the “NF-kB IC50 nM, cyno TL1A (2 nM)” value is > 100 nM.

The target in another assay is T1, human TL1A. In words: SPR, Fab captured on anti-huFab chip, TL1A injected, 1:1 model.
Description: (§1) On rate, off rate and equilibrium dissociation constant were calculated using 1:1 binding model on BIAevaluation software.
As a reminder, the Kd is the constant that tells how readily two partners part at equilibrium. High values mean weaker binding, low ones tighter binding. With B3, the Kd is < 100 pM.

Turning to B5, the dissociation constant Kd is < 300 pM.

A further assay has as its target T1, human TL1A. Put plainly: SPR, mAb captured on anti-human Fc chip, TL1A injected, 1:1 model. Background: In SPR one partner is held on a chip, and binding of the other changes the refractive index at the surface.
Description: as §1
One may read the koff as a measure of how fast the partners let go of each other. A low value points to a long-lived complex. As to B1, the Kd is < 100 pM and the koff was < 5e-05 s⁻¹.

As for B2, binding was characterised by a dissociation constant (Kd) of 340 pM.

With B4, the dissociation constant (Kd) came to 1100 pM.

The next assay concerns the target T2, cynomolgus TL1A. The description is as above.
Description: as §1
For orientation: kon means the rate constant with which the complex forms. Higher therefore signals faster complex formation. With B1, the Kd came to 2400 pM, the off-rate (koff) is 0.0014 s⁻¹ and the on-rate constant (kon) amounted to 570000 M⁻¹ s⁻¹.

The next assay concerns the target T3, human TL1A. Put plainly: hybridoma screening after immunisation with recombinant human TL1A soluble protein; member named through Tables A, C and D.
For B6, the binding result was “binds”.

As for B7, the binding result is “binds”.

As to B8, the binding result is “binds”.

Turning to B9, the binding result was “binds”.

With B10, the binding result is “binds”.

As to B11, the binding result is “binds”.

Turning to B12, the binding result is on record as “binds”.

B13: the binding result is “binds”.

Take B14: the binding result is “binds”.

In the case of B15, the binding result is given as “binds”.

Turning to B16, the binding result is reported as “binds”.

Take B17: the binding result is “binds”.

With B18, the binding result is reported as “binds”.

For B19, the binding result is listed as “binds”.

Consider B20, for which the binding result is listed as “binds”.

Turning to B21, the binding result is listed as “binds”.

In the case of B22, the binding result is listed as “binds”.

Take B23: the binding result is given as “binds”.
